# According to paper PMC3490468:
# Several values for one entry are separate records, joined by “and”; a condition that tells them apart may be missing. Identical values can stand only once.
# How the values were obtained:
# [1] = target: truncated portal protein cn3 (E25-Q456) of bacteriophage CNPH82 (bacteriophage CNPH82); experiment: self-rotation function of X-ray diffraction data; crystal in space group C222(1), data to 4.2 A; MOLREP, resolution range 5-10 A, integration radius 87 A; structure not solved
# [2] = target: truncated portal protein cn3 (E25-Q456) of bacteriophage CNPH82 (bacteriophage CNPH82); experiment: SEC-MALS; 60 ul of 0.5 mg/ml cn3 on a BioSep SEC-s3000 column; 20 mM Tris pH 7.5, 500 mM NaCl, 10 mM MgCl2; size of the oligomer in solution
substance,measurement,setting,value
truncated portal protein cn3 (E25-Q456) of bacteriophage CNPH82 (domain or fragment),stoichiometry N (subunits per oligomer),[1],13
same,stoichiometry N (subunits per oligomer),[2],12.9 and 13
